What was measured:
MS2 coat protein [1] = assay: apparent KD of MS2 coat protein; designed switch direction (-1 OFF switch, 1 ON switch): 1; higher = weaker reporter binding
How it was run: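 For each design, the apparent KD is the median over clusters of curves fitted to normalised cluster fluorescence. Clusters held RNA switches with common flanks, transcribed on Illumina chips by stalled E. coli RNA polymerase. These were titrated with SNAP-549-labelled MS2 coat protein, doubling from 0.7 or 1.5 nM to 3 µM, without input, with 200 uM small-molecule ligand, or with an oligonucleotide input.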

MS2 coat protein [2] = assay: apparent KD of MS2 coat protein; higher = weaker reporter binding; details: Eterna round: R107
How it was run: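 The designed RNA switches were transcribed on-chip from Illumina sequencing clusters. In 100 mM Tris-HCl pH 7.5, 80 mM KCl and 4 mM MgCl2, without or with constant ligand, they were titrated with SNAP-549-labelled MS2 coat protein from 0.7 or 1.5 nM to 3 µM in twofold steps. Apparent KD is the per-design median of normalised cluster binding-curve fits.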

[3] = Eterna round: R95, input ligand: FMN 200 uM
[4] = Eterna round: R95, input ligand: microRNA oligo, concentration not stated
[5] = Eterna round: R95, input ligand: none
[6] = input ligand: microRNA oligo, concentration not stated
[7] = input ligand: theophylline 20 uM
[8] = input ligand: theophylline 2 mM
[9] = input ligand: tryptophan 2.4 mM

Sequence	apparent KD of MS2 coat protein (MS2 coat protein [1]; [3]) [nM]	apparent KD of MS2 coat protein (MS2 coat protein [1]; [4]) [nM]	apparent KD of MS2 coat protein (MS2 coat protein [1]; [5]) [nM]	apparent KD of MS2 coat protein (MS2 coat protein [1]; input ligand: FMN 200 uM) [nM]	apparent KD of MS2 coat protein (MS2 coat protein [1]; [6]) [nM]	apparent KD of MS2 coat protein (MS2 coat protein [1]; input ligand: none) [nM]	apparent KD of MS2 coat protein (MS2 coat protein [2]; input ligand: arginine 13.2 mM) [nM]	apparent KD of MS2 coat protein (MS2 coat protein [2]; input ligand: none) [nM]	apparent KD of MS2 coat protein (MS2 coat protein [2]; [7]) [nM]	apparent KD of MS2 coat protein (MS2 coat protein [2]; [8]) [nM]	apparent KD of MS2 coat protein (MS2 coat protein [2]; [9]) [nM]
AAAAAACAUGAGGAUCACCCAUGUCAAAAGACAUGAGGAUAUGUGCAAAUAAAAUAAGAAACAGAAGGCAUGAAAA [salish99_ss1_r3_102] (puzzle: Same State 1)	69.1	210	229								
AAAAAACAUGAGGAUCACCCAUGUCAAAAGACUCGAGGAUAUGGGCAAAUAAAAUAAGAACCAGAAGGCGAGAAAA [salish99_ss1_r3_101] (puzzle: Same State 1)	20	36.3	31.7								
AAAACAGGCUUCCUCUCGUCUCAAAAUGCACAUGAGGAUCACCCAUGUAAAACCCAGCGUAGUGUCGCACUACCUGA [Laresoar] (puzzle: Sensor for hsa-mir-208a)	161	23.4	126								
AAAAGAAACACAGGAUAUACCGCACUUAACGCGGUAGAAGGGUGGGACAUGAGGAUCACCCAUGUGGCCUGAGCACCAGGCCGC [Orgele] (Eterna round: R96, puzzle: Same State NG 1)				47	5.38	21.8					
AAAAGAAACAUGUACCUGAGUACAUGAAAACAUGAGGAUCACCCAUGUAAUAAGCGGGUGGCUCGUCUUAUAAGAAA [JL pocket 27] (Eterna round: R96, puzzle: Sensor for hsa-mir-208a)				890	70.4	715					
AAAAGACAGGCAGGAUAUGGGCCUGGCUCUGAUAUCAGAGCCUACACAUGAGGAUCACCCAUGUCCCAGAAGGGCCUGUAGAAG [Cetiriqu] (Eterna round: R96, puzzle: Same State NG 2)				19.4	65.3	79.1					
UUAAUCAAAUUAGAAAACUAAUUUGCAGAAGGAGCGUGAUAAAACACAGGUAGGUCGCUGAAGGGAACAUGAGGAUCACCCAUGU [AstrosSSArgA#11]							26.7	26	35.7	29.5	25.7
UUAAUCAUAUAAGAAAACUUAUAUGCAGAAGGAGCGUGAUAAAACACAGGUAGGUCGCUGAAGGGAACAUGAGGAUCACCCAUGU [AstrosSSArgA#7]							28	23.4	36.2	32.4	28.8
UUAAUCAUGUUAGAAAACUAAUAUGCAGAAGGAGCGUGAUAAAACACAGGUAGGUCGCUGAAGGGAACAUGAGGAUCACCCAUGU [AstrosSSArgA#9]							42.8	37	43.6	37.3	34.8
UUAAUUAUAUAUUAUAUAAUAUAUACAGAAGGAGCGUGAUAAAACACAGGUAGGUCGCUGAAGGGAACAUGAGGAUCACCCAUGU [AstrosSSArgA#1]							26.9	25.6	38.5	48.6	30
UUACAUGAGGAUCACCCAUGUCAUAACGAUACCAGAUAGUUAAUGAUCCCUUGGCAGCGUAAUACCUAGACAUUUAAGUCAUAGG [#25 SameState-TheophyllineA]							35.3		63.2		50.9
UUACGAGGCUAUCCACUUUGAUUUUGUGAUACCAGAAUAAUUUUAUUCCCUUGGCAGCAUGACAUGAGGAUCACCCAUGUGUCUU [SSTheo A #4]							34.3		47.4		42.5
UUAGAUAUGACAGAUACCAGCGUGUUAUAAAACAUGAGGAUCACCCAUGUAGUGAUCGAGCGCCCUUGGCAGCUGGUGUGUUUGG [7.R]							69.7		175		148
UUAGAUAUGACGGAUACCAGCGUGUUGUAGAACAUGAGGAUCACCCAUGUAGUGAUCAUGCGCCCUUGGCAGCUGGUAUGUUUGG [7.U]							178		386		566
UUAUUUAACGGAAGGAGCGCGGAUAAUAAAGUGGGUAAACAUGAGGAUCACCCAUGUAAACCGCAGGUAGGUCGCCGAUAUUUAU [AstrosEXyARgB#6]							43.9	56.5	77.6	72.9	42.6
UUCAGCUAGUCGGCCGCCACUACAUGAGGAUCACCCAUGUCGGUCCUCACUGCUUCGGCAGUGUGUAGGACCGGGACUAGCUGAG							62		93.6	91.3	
UUCAGCUAGUCGGCCGCCACUACAUGAGGAUCACCCAUGUUCCUAAAACACUGCUUCGGCAGUGGUAGGACCGGGACUAGCUGAG							41.1	31.7	48.5	42	256
UUCAGCUAGUCGGCCGCCACUACUUGAGGAUCACCCAAGUAGGUCCACACUGCUUCGGCAGUGAGUAGGACCGGGACUAGCUGAG							13.7	14.7	13.5	11.5	35.3

Sequence	apparent KD of MS2 coat protein (MS2 coat protein [1]; [3]) [nM]	apparent KD of MS2 coat protein (MS2 coat protein [1]; [4]) [nM]	apparent KD of MS2 coat protein (MS2 coat protein [1]; [5]) [nM]	apparent KD of MS2 coat protein (MS2 coat protein [1]; input ligand: FMN 200 uM) [nM]	apparent KD of MS2 coat protein (MS2 coat protein [1]; [6]) [nM]	apparent KD of MS2 coat protein (MS2 coat protein [1]; input ligand: none) [nM]	apparent KD of MS2 coat protein (MS2 coat protein [2]; input ligand: arginine 13.2 mM) [nM]	apparent KD of MS2 coat protein (MS2 coat protein [2]; input ligand: none) [nM]	apparent KD of MS2 coat protein (MS2 coat protein [2]; [7]) [nM]	apparent KD of MS2 coat protein (MS2 coat protein [2]; [8]) [nM]	apparent KD of MS2 coat protein (MS2 coat protein [2]; [9]) [nM]
UUCAGCUAGUCGGCCGCCACUACUUGAGGAUCACCCAGGUAAUCCUAACACUGCUUCGGCAGUGGUAGGACCGGGACUAGCUGAG							24	19	21.6	24.5	103
UUCAGCUAGUCGGCCGCCACUGCAUGAGGAUCACCCAUGUAGGUCCACACUGCUUCGGCAGUGAGUAGGACCGGGACUAGCUGAG							11.4	9.41	12.9	10.8	13.7
UUCAGCUAGUCGGCCGCCACUGCUUGAGGAUCACCCAAGUAGGUCCACACUGCUUCGGCAGUGAGUAGGACCGGGACUAGCUGAG							10.9	10.1	14.4	10.1	25.8
UUCUACGACGAUCUGGGAAAACCAGAUCGACGAGGACCGGUACGGCCGCCACUCGUGUUUCUUUAACAUGAGGAUCACCCAUGUA [#12 Tryptophan A Same State]							23.6		28	27.8	
UUCUUUAAGUCGGCCGCCACUGAAACAUGAGGAUCACCCAUGUAUAUUUGGGUAUAGGUGGAUUACAGGACCGGGACUAUAGUAA [JR_ExcTryptoB_Sub022]							31.2	66.1	72.3	104	79.6
UUGACAUGAGGAUCACCCAUGUUAGCGGAAGGAGCGCGGUAGUACGCAGGUAGGUCGCCGAGAACAGUGAUAGUUGUUCUCAUGU [X-ArgiA-ms2@4-1]							27.6	76.6	85	91.2	46.9
UUGGGUUUGUGAAGGAGCGGGUAUGUUUUAUAGUGGAUCCUAACAUGAGGAUCACCCAUGUCCCAGGUAGGUCGCGCGGGUUUGG [12.T]							54.4	78.3	203	149	117
UUUACAUGAGGAUCACCCAUGUGCCAUGAUACCAGACAUGAAAAUGUCCCUUGGCAGCAUGAAGGUACCUCAUCGGGAAACCGAA [Malomerice]							28.5		95.7		53
UUUCAAGUAUCGGCCGCCACUCUAGUUGGUUGUUCAAUCCGAUUACAUGAGGAUCACCCAUGUCUGAGGACCGGGAUAAAGUAAU [theeternabot_sameState_MS2_Trp_B_25]							20.4		32.5	31.2	
UUUGAGAUAACAGAUACCAGCGUGUUAUAAAACAUGAGGAUCACCCAUGUAGUGAUCAAGCGCCCUUGGCAGCUGGUAUUUUAGG [7.G]							70.3		186		146
UUUGAUAGGACAGAUACCAGCGUGUUGUUGAACAUGAGGAUCACCCAUGUAGUGAUCAGGCGCCCUUGGCAGCUGGUUUGUUAGG [7.N]							265		363		366
UUUUAAGGGAUCGGUGCUGGUAGCAGAGAUACCAGAGUAAUGAUACUCCCUUGGCAGCUCAGUACAUGAGGAUCACCCAUGUUUU [Exclusion Theophylline A GF25]							16.7		23.2		18.1
UUUUACGGCGAUCUGGGUUUACCAGAUCGGCGAGGACCGGUACGGCCGCCACUCGUGUUUCUUUAACAUGAGGAUCACCCAUGUA [SSTA #1]							32.4	38.4	77.3	50.9	16
UUUUACGGCGAUCUGGGUUUACCAGAUCGGCGAGGACCGGUACGGCCGCCACUCGUGUUUCUUUGACAUGAGGAUCACCCAUGUA [whbob_SS_trypto A_f1]							28.9		42.5	39.2	
UUUUAGCAUCGAAGGAGCGCUGGUAGGUGACACAUGAGGAUCACCCAUGUGCUCCUUACCGAGCAGGUAGGUCGCGAUGCUAUUU [SSAB NP+V+V2 #9]							20	23.7	35.4	29.4	25.1
UUUUUCGCGGGCGAUACCAGCUUGAUCGUACUGGCCUGGUACAUGAGGAUCACCCAUGUAAGCCCUUGGCAGCGCGCGCGAGAAG [#1 Exclusion - Theophylline B Attempt #2 (HarryS)]							10.8	11.5	17.7	30.4	12
UUUUUCGCGGGUGAUACCAGCAAAGCUGUACUGGUCUGGUACAUGAGGAUCACCCAUGUUUGCCCUUGGCAGCGCUCGGGAGAAG [#21 Exclusion-TheophyllineB]							27.7		47.9		28.6
UUUUUUAUUAUGGCGUAUCGGAAAACCGAUACCAGUACAGAAAUGUACCCUUGGCAGCGGCGUUUUACAUGAGGAUCACCCAUGU [Ex Theophylline A 5]							12.4		18.9		15.4

Source: the supplement of paper PMC9170038
